Laboratory results: patent publication US11806404B2, “Site specific homogeneous with KSP inhibitors” (BAYER PHARMA AKTIENGESELLSCHAFT, priority 2015, dated 2023)
Where two headings read alike, the source gives them in different places.

Tests used:
[1] = Caco-2 flux assay for cell permeability; assay type: in vitro ADME; conditions: human; Caco-2, 2 hours
Experimental: The cell permeability of a substance can be investigated by means of in vitro testing in a flux assay using Caco-2 cells [M. D. Troutman and D. R. Thakker, Pharm. Res. 20 (8), 1210-1224 (2003)]. For this purpose, the cells were cultured for 15-16 days on 24-well filter plates. For the determination of permeation, the respective working example was applied in a HEPES buffer to the cells either apically (A) or basally (B) and incubated for 2 hours. After 0 hours and after 2 hours, samples were taken from the cis and trans compartments. The samples were separated by HPLC (Agilent 1200, Böblingen, Germany) using reverse phase columns. The HPLC system was coupled via a Turbo Ion Spray Interface to a Triple Quadropol mass spectrometer API 4000 (Applied Biosystems Applera, Darmstadt, Germany). The permeability was evaluated on the basis of a Papp value, which was calculated using the formula published by Schwab et al. [D. Schwab et al., J. Med. Chem. 46, 1716-1725 (2003)].
Of critical importance for toxophores which are released intracellularly is the permeability from B to A [Papp (B−A)] and the ratio of Papp (B−A) to Papp (A−B) (efflux ratio): the lower this permeability, the slower the active and passive transport processes of the substance through the monolayer of Caco-2 cells.

[2] = system: NCI-H292; experiment: MTT assay, cytotoxic effects of the ADCs; assay type: cell-based; conditions: Homo sapiens, metabolite
Experimental: (§1) The analysis of the cytotoxic effects of the anti-TWEAKR-ADCs was carried out with various cell lines:
NCI-H292: human mucoepidermoid lung carcinoma cells, ATCC-CRL-1848, standard medium: RPMI 1640 (Biochrom; #FG1215, stab. glutamine)+10% FCS (Biochrom; #S0415), TWEAKR-positive, EGFR-positive.
(§2) The cells are cultivated by a standard method, as indicated in the […] (ATCC) for the respective cell lines.
(§3) The test was carried out by detaching the cells with a solution of Accutase in PBS (Biochrom AG #L2143), pelleting, resuspending in culture medium, counting and seeding the cells into a 96-well culture plate with white bottom (Costar #3610, LoVo:1000 cells/well, SK-HEP-1: 1200 cell/well, NCI H292: 1500 cell/well in a total volume of 100 μL). The cells were then incubated in an incubator at 37° C. and 5% carbon dioxide. After 48 h, the antibody drug conjugates were added in 10 μl of culture medium in concentrations of from 10^−5M to 10^−13M to the cells (triplicates) and incubated in an incubator at 37° C. and 5% carbon dioxide. After 96h, the proliferation was measured using the MTT assay (ATCC, Manassas, Va., USA, catalogue No. 30-1010K). […] The dye formed was detected at 570 nm (Infinite M1000 pro, Fa. Tecan). Based on the measured data the IC50 value was determined from the DRC (dose response curve). […]

[3] = system: KPL4; experiment: MTT assay, cytotoxic effects of the ADCs; assay type: cell-based; conditions: Homo sapiens, metabolite, read-out: KPL-4 IC50 [M] MTT Assay
Experimental: as §1
KPL4: human breast carcinoma cells, standard medium: RPMI 1640+GlutaMAX I+10% FBS, cell bank, Bayer Pharma AG (identity checked and confirmed on 19 Jul. 2012 at DSMZ), Berlin, ERBB2-positive.
as §2, §3

[4] = biological target: recombinant human TWEAKR protein (TPP-2305) (Homo sapiens (Human), UniProt Q9NP84); experiment: Biacore surface plasmon resonance binding affinity; conditions: for ka / kd: monovalent, 1:1 binding model
Experimental: Binding affinities of anti-TWEAKR antibodies were examined using surface plasmon resonance analysis on a Biacore T100 instrument (GE Healthcare Biacore, Inc.). The antibodies were immobilized on a CMS sensor chip using an indirect capture reagent, anti-human IgG(Fc). Reagents of the “Human Antibody Capture Kit” (BR-1008-39, GE Healthcare Biacore, Inc.) were used as described by the manufacturer. Anti-TWEAKR antibodies were injected at a concentration of 10 μg/ml at 10 μl/min for 10 sec.
Sensorgrams were generated after in-line reference cell correction, followed by subtraction of the buffer sample. The dissociation constant (KD) was calculated based on the ratio of association (kon) and dissociation (koff) constants, obtained by fitting sensorgrams using a 1:1 first order binding model.

[5] = biological target: hTNFRSF12 amino acids a28-80-H60K-hIgG1-Fc (TPP-1989) (Homo sapiens (Human), UniProt Q9NP84, H60K); experiment: ELISA mutein binding; conditions: mutein coated 62 ng/ml, biotinylated IgG; read-out: Effect of muteins on antibody binding: H60K
Experimental: (§4) To this end, the full-length ectodomain (amino acids 28-80) having the individual amino acid substitutions below were expressed and purified as Fc fusion proteins: T33Q; S40R; W42A; M50A; R56P; H60K; L65Q.
(§5) To obtain dose-reaction data, the different TWEAKR-Fc muteins were coated at a low concentration (62 ng/ml) onto a 384-well Maxisorb ELISA plate, and a serial 2-fold dilution of biotinylated IgG beginning with a concentration of 100 nM was used as a soluble binding partner. Detection was carried out using streptavidin-HRP and Amplex Red.
(§6) IgGs were biotinylated using an about 2-fold molar excess of biotin-LC-NHS (Pierce; Cat. No. 21347) according to the instructions of the manufacturer and desalted using Zeba desalting columns (Pierce; Cat. No. 89889). The dose-reaction data were fitted and the IC50s were determined.

[6] = biological target: hTNFRSF12 amino acids a28-80-W42A-hIgG1-Fc (TPP-1985) (Homo sapiens (Human), UniProt Q9NP84, W42A); experiment: ELISA mutein binding; conditions: mutein coated 62 ng/ml, biotinylated IgG; read-out: Effect of muteins on antibody binding: W42A
Experimental: as §4, §5, §6

[7] = biological target: hTNFRSF12 amino acids a28-80-T33Q-hIgG1-Fc (TPP-1986) (Homo sapiens (Human), UniProt Q9NP84, T33Q); experiment: ELISA mutein binding; conditions: mutein coated 62 ng/ml, biotinylated IgG; read-out: Effect of muteins on antibody binding: T33Q
Experimental: as §4, §5, §6

[8] = biological target: hTNFRSF12 amino acids a28-80-S40R-hIgG1-Fc (TPP-1987) (Homo sapiens (Human), UniProt Q9NP84, S40R); experiment: ELISA mutein binding; conditions: mutein coated 62 ng/ml, biotinylated IgG; read-out: Effect of muteins on antibody binding: S40R
Experimental: as §4, §5, §6

[9] = biological target: hTNFRSF12 amino acids a28-80-R56P-hIgG1-Fc (TPP-2683) (Homo sapiens (Human), UniProt Q9NP84, R56P); experiment: ELISA mutein binding; conditions: mutein coated 62 ng/ml, biotinylated IgG; read-out: Effect of muteins on antibody binding: R56P
Experimental: as §4, §5, §6

[10] = biological target: hTNFRSF12 amino acids a28-80-M50A-hIgG1-Fc (TPP-1988) (Homo sapiens (Human), UniProt Q9NP84, M50A); experiment: ELISA mutein binding; conditions: mutein coated 62 ng/ml, biotinylated IgG; read-out: Effect of muteins on antibody binding: M50A
Experimental: as §4, §5, §6

[11] = biological target: hTNFRSF12 amino acids a28-80-L65Q-hIgG1-Fc (TPP-1990) (Homo sapiens (Human), UniProt Q9NP84, L65Q); experiment: ELISA mutein binding; conditions: mutein coated 62 ng/ml, biotinylated IgG; read-out: Effect of muteins on antibody binding: L65Q
Experimental: as §4, §5, §6

[12] = biological target: TWEAKR (Homo sapiens (Human), UniProt Q9NP84); conditions: literature values; read-out: published KD values; cited from earlier work
[13] = biological target: hTNFRSF12 amino acids a28-80-hIgG1-Fc (TPP-599) (Homo sapiens (Human), UniProt Q9NP84); experiment: ELISA mutein binding (wild type); conditions: coated 62 ng/ml, biotinylated IgG; read-out: Effect of muteins on antibody binding: WT
Experimental: as §4, §5, §6

[14] = Biacore, read-out: KD (affinity to TWEAKR)

CC(=O)N[C@@H](CCCCNC(=O)CC[C@H](N)C(=O)O)C(=O)NCCNC(=O)[C@@H](N)CCN(C(=O)CO)[C@@H](c1cc(-c2cc(F)ccc2F)cn1Cc1ccccc1)C(C)(C)C.O=C(O)C(F)(F)F [Example M100, N^6-L-gamma-glutamyl-N^2-acetyl-N-[2-({(2S)-2-amino-4-[{(1R)-1-[1-benzyl-4-(2,5-difluorophenyl)-1H-pyrrol-2-yl]-2,2-dimethylpropyl}(glycoloyl)amino]butanoyl}amino)ethyl]-L-lysinamide trifluoro acetate (1:1)]
Papp B→A at 2 h [1]: 0.12 ×10⁻⁶ cm/s | IC50 [2]: > 500000 pM | IC50 [3]: > 5e-07 M

B1: 18.3.3(TPP-2193): comparative anti-TWEAKR antibody; variable domains "obtained from the patent literature WO2009/020933", constant region added, "resulting in full-length IgGs" (antibody)
heavy: EVKLGESGGGLVQPGGSMKLSCVASGFPFTKYWMNWVRQSPEKGLEWVAEIRLKSDNYATHYAESAKGRFTISRDDSRSSVYLQMNNLRAEDTAIYYCSPTYADTMDYWGQGTSVTVSSAKTTAPSVYPLAPVCGDTTGSSVTLGCLVKGYFPEPVTLTWNSGSLSSGVHTFPAVLQSDLYTLSSSVTVTSSTWPSQSITCNVAHPASSTKVDKKIEPRGPTIKPCPPCKCPAPNLLGGPSVFIFPPKIKDVLMISLSPIVTCVVVDVSEDDPDVQISWFVNNVEVHTAQTQTHREDYNSTLRVVSALPIQHQDWMSGKEFKCKVNNKDLPAPIERTISKPKGSVRAPQVYVLPPPEEEMTKKQVTLTCMVTDFMPEDIYVEWTNNGKTELNYKNTEPVLDSDGSYFMYSKLRVEKKNWVERNSYSCSVVHEGLHNHHTTKSFSRTPG
light: DIVLTQSPASLAVSLGQRATISCKASQSVSTSTYSYMQWYQQRPGQSPKLLIKYASKLDSGVPARFSGSGSGTDFTLNIHPVEEEDTATYYCQHSWELPYTFGGGTRLEIKRADAAPTVSIFPPSSEQLTSGGASVVCFLNNFYPKDINVKWKIDGSERQNGVLNSWTDQDSKDSTYSMSSTLTLTKDEYERHNSYTCEATHKTSTSPIVKSFNRNEC
modifications: Mus Musculus
Kd [4, 14]: 700 to 3700 pM | ka [4]: 1.64e+07 M⁻¹ s⁻¹ | kd [4]: 0.0285 s⁻¹ | IC50 [5]: 1 to 150 pM | IC50 [6]: > 50000 pM | IC50 [7]: 1 to 150 pM | IC50 [8]: 1 to 150 pM | IC50 [9]: > 50000 pM | IC50 [10]: 1 to 150 pM | IC50 [11]: 1 to 150 pM | Kd [12]: 200 pM | IC50 [13]: 1 to 150 pM

B2: P2D3(TPP-2196): comparative anti-TWEAKR antibody; variable domains from patent literature "WO2009/020933 and WO2009/140177", constant region added, "resulting in full-length IgGs" (antibody)
heavy: QVSLKESGPGILQPSQTLSLTCSFSGFSLSTSGMGVSWIRQPSGKGLEWLAHIYWDDDKRYNPSLKSRLTISKDTSRNQVFLKITSVDTADTATYYCARRGPDYYGYYPMDYWGQGTSVTVSAKTTAPSVYPLAPVCGDTTGSSVTLGCLVKGYFPEPVTLTWNSGSLSSGVHTFPAVLQSDLYTLSSSVTVTSSTWPSQSITCNVAHPASSTKVDKKIEPRGPTIKPCPPCKCPAPNLLGGPSVFIFPPKIKDVLMISLSPIVTCVVVDVSEDDPDVQISWFVNNVEVHTAQTQTHREDYNSTLRVVSALPIQHQDWMSGKEFKCKVNNKDLPAPIERTISKPKGSVRAPQVYVLPPPEEEMTKKQVTLTCMVTDFMPEDIYVEWTNNGKTELNYKNTEPVLDSDGSYFMYSKLRVEKKNWVERNSYSCSVVHEGLHNHHTTKSFSRTPG
light: DIVLTQSPASLAVSLGQRATISCRASKSVSTSSYSYMHWYQQKPGQPPKLLIKYTSNLESGVPARFSGSGSGTDFILNIHPVEEEDAATYYCQHSRELPWTFGGGTKLEIKRADAAPTVSIFPPSSEQLTSGGASVVCFLNNFYPKDINVKWKIDGSERQNGVLNSWTDQDSKDSTYSMSSTLTLTKDEYERHNSYTCEATHKTSTSPIVKSFNRNEC
modifications: Mus Musculus
Kd [4, 14]: 700 to 3700 pM | Kd ([4]; monovalent KD, read-out: KD): 400 pM | ka [4]: 1.32e+06 M⁻¹ s⁻¹ | kd [4]: 0.000564 s⁻¹
